Source: patent publication US11672873 (dated 2023)
Blank lines part the entries; values can stand above or below the binder they belong to.

What was measured:
soluble B7H4 [1] = target: T1, soluble B7H4; test: SPR; experiment #1, 20 nM B7-H4
T1 chain: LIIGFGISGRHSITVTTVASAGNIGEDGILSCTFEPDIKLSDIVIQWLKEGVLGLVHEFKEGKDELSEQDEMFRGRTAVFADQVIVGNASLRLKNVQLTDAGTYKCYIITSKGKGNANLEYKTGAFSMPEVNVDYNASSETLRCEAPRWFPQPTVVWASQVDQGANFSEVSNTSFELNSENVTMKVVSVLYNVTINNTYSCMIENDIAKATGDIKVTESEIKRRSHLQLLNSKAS

soluble B7H4 [2] = target: T1, soluble B7H4; test: SPR; experiment #2, 25 nM B7-H4

- Kd (soluble B7H4 [1]): 0.079 nM
- Kd (soluble B7H4 [2]): 0.119 nM
B1: anti-B7-H4 antibody 817 (antibody, V domains shown)
VH: EVQLVESGGGLVQPGGSLRLSCAASGFTFSSYAMHWVRQAPGKGLEWVSAISGSGGSTRYADSVKGRFTISRDNSKNTLYLQMNSLRAEDTAVYYCARGRWSKWGFDVWGQGTLVTVSS
VL: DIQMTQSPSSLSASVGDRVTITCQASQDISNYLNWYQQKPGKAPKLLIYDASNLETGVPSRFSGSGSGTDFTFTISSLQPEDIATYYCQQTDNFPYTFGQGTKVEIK

- Kd (soluble B7H4 [1]): 0.175 nM
- Kd (soluble B7H4 [2]): 0.383 nM
B2: anti-B7-H4 antibody 801 (antibody, V domains shown)
VH: EVQLVESGGGLVQPGGSLRLSCAASGFTFNSYAMHWVRQAPGKGLEWVSAISGNGGSTRYADSVKGRFTISRDNSKNTLYLQMNSLRAEDTAVYYCARDRFRKVHGFDVWGQGTLVTVSS
VL: DIQMTQSPSSLSASVGDRVTITCQASQDISNYLNWYQQKPGKAPKLLIYDASNLETGVPSRFSGSGSGTDFTFTISSLQPEDIATYYCQQDATFPLTFGQGTKVEIK
